Earlier results on one substance are cited in publication PMC7687155.

As usually defined, the Kd is the equilibrium constant for the complex coming apart.

In this data set the target is Sep15 (Homo sapiens) (UniProt O60613).
Sequence of Sep15 (Homo sapiens) (O60613 32-165): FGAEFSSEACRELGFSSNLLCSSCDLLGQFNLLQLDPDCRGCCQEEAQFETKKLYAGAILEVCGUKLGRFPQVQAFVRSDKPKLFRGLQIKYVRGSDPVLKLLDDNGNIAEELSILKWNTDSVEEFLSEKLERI

Sequence of UGGT1 (Q9NYU2 43-1555): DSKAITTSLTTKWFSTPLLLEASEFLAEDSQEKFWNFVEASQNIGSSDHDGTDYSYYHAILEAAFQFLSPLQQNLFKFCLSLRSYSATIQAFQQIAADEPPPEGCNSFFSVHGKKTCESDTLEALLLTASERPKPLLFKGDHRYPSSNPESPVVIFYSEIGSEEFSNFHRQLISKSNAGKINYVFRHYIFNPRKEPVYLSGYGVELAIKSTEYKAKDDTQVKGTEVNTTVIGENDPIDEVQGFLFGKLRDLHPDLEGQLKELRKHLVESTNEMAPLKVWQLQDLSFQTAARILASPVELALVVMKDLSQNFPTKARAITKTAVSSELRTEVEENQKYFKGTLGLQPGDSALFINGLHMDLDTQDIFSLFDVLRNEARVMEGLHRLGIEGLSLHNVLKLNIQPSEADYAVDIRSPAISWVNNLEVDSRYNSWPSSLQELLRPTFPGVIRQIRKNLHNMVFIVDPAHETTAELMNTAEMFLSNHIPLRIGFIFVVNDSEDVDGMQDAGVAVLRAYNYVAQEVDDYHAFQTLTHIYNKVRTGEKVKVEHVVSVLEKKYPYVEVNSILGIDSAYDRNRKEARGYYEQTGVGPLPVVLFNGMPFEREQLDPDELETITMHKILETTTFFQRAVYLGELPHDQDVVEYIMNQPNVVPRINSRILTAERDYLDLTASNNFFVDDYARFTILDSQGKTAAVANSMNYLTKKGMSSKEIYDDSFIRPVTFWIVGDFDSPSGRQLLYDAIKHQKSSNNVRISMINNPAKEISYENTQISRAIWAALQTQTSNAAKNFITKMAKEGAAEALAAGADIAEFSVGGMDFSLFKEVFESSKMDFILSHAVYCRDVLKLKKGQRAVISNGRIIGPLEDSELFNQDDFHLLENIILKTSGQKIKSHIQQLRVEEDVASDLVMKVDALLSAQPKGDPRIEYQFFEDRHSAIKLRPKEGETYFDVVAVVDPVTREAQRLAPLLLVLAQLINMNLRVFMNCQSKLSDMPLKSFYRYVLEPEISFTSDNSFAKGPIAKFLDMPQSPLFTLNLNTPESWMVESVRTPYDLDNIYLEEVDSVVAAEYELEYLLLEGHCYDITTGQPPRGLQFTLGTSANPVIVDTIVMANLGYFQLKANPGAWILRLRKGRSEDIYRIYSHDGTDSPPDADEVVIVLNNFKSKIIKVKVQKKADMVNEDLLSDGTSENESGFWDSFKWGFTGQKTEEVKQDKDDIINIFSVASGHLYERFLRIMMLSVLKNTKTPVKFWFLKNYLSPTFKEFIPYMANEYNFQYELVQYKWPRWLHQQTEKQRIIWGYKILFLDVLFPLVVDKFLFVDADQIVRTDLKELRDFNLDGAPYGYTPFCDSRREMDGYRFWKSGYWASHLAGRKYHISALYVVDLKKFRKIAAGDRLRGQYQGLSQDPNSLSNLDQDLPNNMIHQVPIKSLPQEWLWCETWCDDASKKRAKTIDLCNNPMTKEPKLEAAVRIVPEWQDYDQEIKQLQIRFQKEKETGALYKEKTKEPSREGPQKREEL

Consider UGGT1 (from UniProt Q9NYU2), for which the dissociation constant Kd is 20 nM.
